T1: WT-14 (RecA residues 196-209 peptide) (Escherichia coli, UniProt P0A7G8)
T1 chain: RMKIGVMFGNPETT

T2: FECO (RecA residues 193-212 peptide) (Escherichia coli, UniProt P0A7G8 SEQ:1-20)
T2 chain: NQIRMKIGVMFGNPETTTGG


How the values were obtained:
[1] = target: T1, WT-14 (RecA residues 196-209 peptide); experiment: filter; peptide up to 100 uM, pH 8.3; no joint molecules; details: protein: synthetic; tags: synthetic peptide, HPLC purified; label: 5' 32P
[2] = target: T2, FECO (RecA residues 193-212 peptide); experiment: filter; 10 mM MgCl2, pH 8.3, room temp; less tight without Mg; unstacks ssDNA (permanganate); joint molecules with homologous pBluescript but not pUC19 (Example 5); details: protein: synthetic; tags: synthetic peptide, HPLC purified; label: 5' 32P
[3] = target: T2, FECO (RecA residues 193-212 peptide); experiment: CD, random coil to beta structure, pH 7.5; details: protein: synthetic; tags: synthetic peptide, HPLC purified

Binder | binding result [1] | binding result [2] | binding result [3]
BS-S1 ssDNA (ssDNA) DNA: GGCCGCTCTAGAACTAGTGGATCCCCCGGGCTGCAGGAATTCGATATCAAGCT | no binding | binds | 
57-mer ssDNA (ssDNA) DNA: CTGTCTACTCTCGAGGTTAACCCGTGCGAATTCTACGATTGGTGCGGCCGGTATATC |  |  | binds

— US5731411, “Promotion of homologous DNA pairing by RecA-derived peptides” (The United States of America as represented by the …)
